Measurements taken from patent publication US20100048677A1 (NEW YORK BLOOD CENTER, published 2010).

Target: αIIb (INTEGRIN, ALPHA 2B; PLATELET GLYCOPROTEIN IIB OF IIB/IIIA COMPLEX, ANTIGEN CD41) (human) (UniProt P08514)
Assay: αIIb complexes captured, mass spectrometry; No. Expts 1

Chain of UniProt Q8IYS1 (Q8IYS1 whole entry): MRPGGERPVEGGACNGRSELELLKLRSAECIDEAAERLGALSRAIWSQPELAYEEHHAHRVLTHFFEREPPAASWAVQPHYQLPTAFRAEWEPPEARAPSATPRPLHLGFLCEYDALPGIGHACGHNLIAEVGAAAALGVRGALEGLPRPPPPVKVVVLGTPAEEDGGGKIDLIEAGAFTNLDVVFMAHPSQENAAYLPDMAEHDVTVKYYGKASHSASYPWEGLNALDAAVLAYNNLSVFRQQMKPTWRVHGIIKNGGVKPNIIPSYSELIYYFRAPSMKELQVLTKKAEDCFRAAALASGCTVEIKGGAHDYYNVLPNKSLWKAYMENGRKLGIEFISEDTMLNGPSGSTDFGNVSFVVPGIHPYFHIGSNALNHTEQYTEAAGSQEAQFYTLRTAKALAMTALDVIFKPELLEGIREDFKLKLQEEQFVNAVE
Chain of HOMER HOMOLOG 3 (DROSOPHILA) (Q9NSC5 whole entry): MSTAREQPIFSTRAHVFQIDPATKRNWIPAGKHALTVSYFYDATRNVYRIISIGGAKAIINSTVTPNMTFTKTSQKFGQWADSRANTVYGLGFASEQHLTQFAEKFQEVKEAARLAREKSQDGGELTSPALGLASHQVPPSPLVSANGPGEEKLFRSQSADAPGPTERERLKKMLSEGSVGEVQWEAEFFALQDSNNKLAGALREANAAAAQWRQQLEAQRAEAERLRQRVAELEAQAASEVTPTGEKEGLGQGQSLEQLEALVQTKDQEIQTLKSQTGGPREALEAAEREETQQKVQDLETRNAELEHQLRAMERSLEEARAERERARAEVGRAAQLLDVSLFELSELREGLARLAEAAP

Question: How did the #Peptides turn out when “3-HYDROXY-3-METHYLGLUTARYL-COENZYME A SYNTHASE 1 (SOLUBLE) (from UniProt Q01581 1-520)” was run?
Answer: 4 peptides

Question: “ACTININ, ALPHA 3 (from UniProt Q08043 1-901)” was tested. Which #Peptides did it give?
Answer: 8 peptides

Question: With “ADP-… GLUCOKINASE (from UniProt Q9BRR6 23-497)” as the substance, how does the #Peptides read?
Answer: 9 peptides

Question: For “ALDO-KETO REDUCTASE FAMILY 7, MEMBER A2 (AFLATOXIN ALDEHYDE REDUCTASE) (from UniProt O43488 39-359)”, which #Peptides is on record?
Answer: 19 peptides

Question: For “ALPHA-2-MACROGLOBULIN (from UniProt P01023 24-1474)”, which #Peptides is on record?
Answer: 2 peptides

Question: With “AMINOACYLASE 1-LIKE 2 (from UniProt Q8IYS1 1-436)” as the substance, how does the #Peptides read?
Answer: 13 peptides

Question: For “AMINOLEVULINATE, DELTA-, … (from UniProt P13716 1-330)”, which #Peptides is on record?
Answer: 8 peptides

Question: Which #Peptides does the source give for “ATAXIN 2-LIKE (from UniProt Q8WWM7 1-1075)” here?
Answer: 8 peptides

Question: Which #Peptides does the source give for “ATP CITRATE LYASE (from UniProt P53396 1-1101)” here?
Answer: 5 peptides

Question: “ATP SYNTHASE, H+ TRANSPORTING, MITOCHONDRIAL F1 COMPLEX, ALPHA SUBUNIT 1, CARDIAC MUSCLE (from UniProt P25705 44-553)” was tested. Which #Peptides did it give?
Answer: 2 peptides

Question: For “ATP-BINDING CASSETTE, SUB-FAMILY A (ABC1), MEMBER 13 (from UniProt Q86UQ4 1-5058)”, which #Peptides is on record?
Answer: 2 peptides

Question: With “C5orf25 (FLJ44216 PROTEIN) (from UniProt Q8NDZ2 1-872)” as the substance, how does the #Peptides read?
Answer: 4 peptides

Question: “CARS2 (HYPOTHETICAL PROTEIN FLJ12118) (from UniProt Q9HA77 1-564)” was tested. Which #Peptides did it give?
Answer: 9 peptides

Question: How did the #Peptides turn out when “CASEIN KINASE 2, ALPHA PRIME PO… (from UniProt P19784 1-350)” was run?
Answer: 3 peptides

Question: “CHAPERONIN CONTAINING TCP1, SUBUNIT 4 (DELTA) (from UniProt P50991 2-539)” was tested. Which #Peptides did it give?
Answer: 8 peptides

Question: How did the #Peptides turn out when “CHAPERONIN CONTAINING TCP1, SUBUNIT 7 (ETA) (from UniProt Q99832 1-543)” was run?
Answer: 11 peptides

Question: Which #Peptides does the source give for “CHD9 (HYPOTHETICAL PROTEIN BC022889) (from UniProt Q3L8U1 1-2897)” here?
Answer: 7 peptides

Question: Which #Peptides does the source give for “CITRON (RHO-…, SERINE/THREONINE KINASE 21) (from UniProt O14578 1-2027)” here?
Answer: 4 peptides

Question: “CNDP … 2 (METALLO… M20 FAMILY) (from UniProt Q96KP4 2-475)” was tested. Which #Peptides did it give?
Answer: 6 peptides

Question: With “COILED-COIL DOMAIN CONTAINING 50 (from UniProt Q8IVM0 2-306)” as the substance, how does the #Peptides read?
Answer: 7 peptides

Question: With “CORONIN, ACTIN BINDING PROTEIN, 1A (from UniProt P31146 2-461)” as the substance, how does the #Peptides read?
Answer: 2 peptides

Question: Which #Peptides does the source give for CORTACTIN (from UniProt Q14247 1-550) here?
Answer: 5 peptides

Question: With CULLIN 5 (from UniProt Q93034 1-780) as the substance, how does the #Peptides read?
Answer: 5 peptides

Question: For CYCLIN B2 (from UniProt O95067 1-398), which #Peptides is on record?
Answer: 2 peptides

Question: Which #Peptides does the source give for CYCLIN G1 (from UniProt P51959 1-295) here?
Answer: 2 peptides

Question: CYCLIN K (from UniProt O75909 1-580) was tested. Which #Peptides did it give?
Answer: 1 peptides

Question: How did the #Peptides turn out when “DEAH (ASP-GLU-ALA-HIS) BOX PO… 38 (from UniProt Q92620 2-1227)” was run?
Answer: 3 peptides

Question: “DEHYDROGENASE E1 AND TRANSKETOLASE DOMAIN CONTAINING 1 (from UniProt Q96HY7 1-919)” was tested. Which #Peptides did it give?
Answer: 25 peptides

Question: With “ENGULFMENT AND CELL MOTILITY 1 (from UniProt Q92556 1-727)” as the substance, how does the #Peptides read?
Answer: 3 peptides

Question: Which #Peptides does the source give for “EUKARYOTIC ELONGATION FACTOR-2 KINASE (from UniProt O00418 2-725)” here?
Answer: 4 peptides

Question: With “EXOSOME COMPONTENT 10 (from UniProt Q01780 1-885)” as the substance, how does the #Peptides read?
Answer: 9 peptides

Question: With “FERM AND PDZ DOMAIN CONTAINING 1 (from UniProt Q5SYB0 1-1578)” as the substance, how does the #Peptides read?
Answer: 4 peptides

Question: How did the #Peptides turn out when “FOUR AND A HALF LIM DOMAINS 1 (from UniProt Q13642 2-323)” was run?
Answer: 5 peptides

Question: How did the #Peptides turn out when GEPHYRIN (from UniProt Q9NQX3 1-736) was run?
Answer: 12 peptides

Question: With “GLUCO… AER61 (from UniProt Q5NDL2 18-527)” as the substance, how does the #Peptides read?
Answer: 3 peptides

Question: How did the #Peptides turn out when “GLUTAMATE RECEPTOR, IONOTROPIC, N-METHYL D-… 2D (from UniProt O15399 28-1336)” was run?
Answer: 2 peptides

Question: With “HEAT SHOCK 70 kDa PROTEIN 1A (from UniProt P0DMV8 2-641)” as the substance, how does the #Peptides read?
Answer: 15 peptides

Question: For “HEAT SHOCK 70 kDa PROTEIN 1B (from UniProt P0DMV9 2-641)”, which #Peptides is on record?
Answer: 15 peptides

Question: For “HEAT SHOCK 70 kDa PROTEIN 9B (MORTALIN-2) (from UniProt P38646 47-679)”, which #Peptides is on record?
Answer: 11 peptides

Question: “HETEROGENEOUS NUCLEAR RIBONUCLEOPROTEIN H1 (from UniProt P31943 1-449)” was tested. Which #Peptides did it give?
Answer: 9 peptides

Question: “HOMER HOMOLOG 3 (DROSOPHILA) (from UniProt Q9NSC5 1-361)” was tested. Which #Peptides did it give?
Answer: 1 peptides

Question: “HTRA SERINE … 2 (from UniProt O43464 134-458)” was tested. Which #Peptides did it give?
Answer: 8 peptides

Question: HYPOTHETICAL PROTEIN FLJ22184 was tested. Which #Peptides did it give?
Answer: 4 peptides

Question: Which #Peptides does the source give for “ISOCITRATE DEHYDROGENASE 3 (NAD+) ALPHA (from UniProt P50213 28-366)” here?
Answer: 5 peptides

Question: Which #Peptides does the source give for “KERATIN 16 (FOCAL NON-EPIDERMOLYTIC PALMOPLANTAR KERATODERMA) (from UniProt P08779 1-473)” here?
Answer: 28 peptides

Question: For KERATIN 19 (from UniProt P08727 1-400), which #Peptides is on record?
Answer: 3 peptides

Question: For “KIAA0895 PROTEIN (from UniProt Q8NCT3 1-520)”, which #Peptides is on record?
Answer: 3 peptides

Question: With “KINESIN FAMILY MEMBER 14 (from UniProt Q15058 1-1648)” as the substance, how does the #Peptides read?
Answer: 7 peptides

Question: For “LECTIN, MANNOSE-BINDING, 1 (from UniProt P49257 31-510)”, which #Peptides is on record?
Answer: 16 peptides

Question: How did the #Peptides turn out when LOC731751 (UNKNOWN PROTEIN) was run?
Answer: 15 peptides

Question: For “LUC7L2 (CGI-59 PROTEIN) (from UniProt Q9Y383 1-392)”, which #Peptides is on record?
Answer: 3 peptides

Question: With “MALIC ENZYME 2, NAD(+)-…, MITOCHONDRIAL (from UniProt P23368 19-584)” as the substance, how does the #Peptides read?
Answer: 20 peptides

Question: For “MITOGEN-… PROTEIN KINASE KINASE KINASE 7 … PROTEIN 2 (from UniProt Q9NYJ8 1-693)”, which #Peptides is on record?
Answer: 2 peptides

Question: For “MYELOPEROXIDASE (from UniProt P05164 165-745)”, which #Peptides is on record?
Answer: 3 peptides

Question: For “N-ACETYLGLUCOSAMINE KINASE (from UniProt Q9UJ70 2-344)”, which #Peptides is on record?
Answer: 4 peptides

Question: Which #Peptides does the source give for “NON-POU DOMAIN CONTAINING, OCTAMER-BINDING (from UniProt Q15233 1-471)” here?
Answer: 32 peptides

Question: For “NUDIX (NUCLEOSIDE DIPHOSPHATE LINKED MOIETY X)-TYPE MOTIF 19 (from UniProt A8MXV4 1-375)”, which #Peptides is on record?
Answer: 10 peptides

Question: For “PATCHED DOMAIN CONTAINING 2 (from UniProt Q9P2K9 1-1392)”, which #Peptides is on record?
Answer: 2 peptides

Question: For “PDZ AND LIM DOMAIN 7 (ENIGMA) (from UniProt Q9NR12 1-457)”, which #Peptides is on record?
Answer: 2 peptides

Question: For “PEROXIREDOXIN 3 (from UniProt P30048 62-256)”, which #Peptides is on record?
Answer: 4 peptides

Question: “POLYMERASE (DNA-DIRECTED), DELTA … PROTEIN 2 (from UniProt Q9Y2S7 52-368)” was tested. Which #Peptides did it give?
Answer: 11 peptides

Question: Which #Peptides does the source give for “PRE-B-CELL COLONY … FACTOR 1 (from UniProt P43490 1-491)” here?
Answer: 6 peptides

Question: Which #Peptides does the source give for “PRE-MRNA CLEAVAGE FACTOR I, 59 kDa SUBUNIT (from UniProt Q8N684 1-471)” here?
Answer: 6 peptides

Question: How did the #Peptides turn out when “PROTEIN KINASE, AMP-…, BETA 1 NON-… SUBUNIT (from UniProt Q9Y478 2-270)” was run?
Answer: 9 peptides
